Holding throughout (assay): cell-based or functional assay
The target in one test is human GCG receptor (human, UniProt P47871 26-477).
The target of another test is T1, human GIP receptor (human, UniProt P48546 22-466).
T1 sequence (looked up): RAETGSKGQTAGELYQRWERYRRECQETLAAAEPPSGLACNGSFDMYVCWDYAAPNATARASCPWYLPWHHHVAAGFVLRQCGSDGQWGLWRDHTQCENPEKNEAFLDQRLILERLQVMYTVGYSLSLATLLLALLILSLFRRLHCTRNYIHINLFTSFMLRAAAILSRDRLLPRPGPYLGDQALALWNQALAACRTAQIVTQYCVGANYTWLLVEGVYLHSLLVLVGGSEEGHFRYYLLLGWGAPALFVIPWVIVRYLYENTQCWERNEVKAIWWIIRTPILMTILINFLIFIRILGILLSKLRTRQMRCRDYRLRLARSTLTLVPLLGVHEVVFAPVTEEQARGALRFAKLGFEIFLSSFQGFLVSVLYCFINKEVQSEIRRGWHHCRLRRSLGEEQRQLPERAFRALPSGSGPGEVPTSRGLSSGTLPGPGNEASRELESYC

In a further test the target is human GLP-1 receptor (human, UniProt P43220 24-463).

We go through 21 molecules from US20240024426A1, “HYPOTENSIVE PHARMACEUTICAL COMPOSITION COMPRISING TRIPLE ACTIVATOR HAVING ACTIVITY FOR ALL OF GLUCAGON, GLP-1, AND GIP RECEPTORS” (HANMI PHARM. CO., LTD., priority 2020, published 2024).

Bridges are numbered along the chain shown (N, C = ends). Where no end group is shown, it is not given here. [ ]: non-standard residue; d: D form. The star is where a group is joined. Acetyl(2-(4-imidazolyl)) = O=C(Cc1c[nH]cn1)*; Aib = CC(C)(N)C(=O)O

Sequence of human GCG receptor (P47871 26-477): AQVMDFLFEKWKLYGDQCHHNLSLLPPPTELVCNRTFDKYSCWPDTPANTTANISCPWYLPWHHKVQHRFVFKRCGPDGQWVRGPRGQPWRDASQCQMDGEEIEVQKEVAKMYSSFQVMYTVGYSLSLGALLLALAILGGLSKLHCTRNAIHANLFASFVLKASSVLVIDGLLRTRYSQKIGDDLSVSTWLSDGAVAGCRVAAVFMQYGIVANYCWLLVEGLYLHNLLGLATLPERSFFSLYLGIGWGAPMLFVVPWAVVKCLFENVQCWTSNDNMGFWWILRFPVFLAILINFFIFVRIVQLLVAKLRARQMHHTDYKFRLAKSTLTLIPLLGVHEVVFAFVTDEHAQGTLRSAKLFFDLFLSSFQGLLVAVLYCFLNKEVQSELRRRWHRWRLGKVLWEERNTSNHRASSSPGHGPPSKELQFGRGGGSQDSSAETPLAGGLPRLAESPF

For the molecule H[Aib]QGTFTSDVSSYLLGQQQKEFIAWLVKGC [Triple agonist of SEQ ID NO: 4], the “In vitro activity compared with native peptide (%) vs. Glucagon” value (“In vitro activity … (%) vs. Glucagon” below) in the test with human GCG receptor was less than 0.1%. Moreover, the “In vitro activity compared with native peptide (%) vs. GIP” value (from here on “In vitro activity … (%) vs. GIP”) with human GIP receptor is less than 0.1%. Also, the “In vitro activity compared with native peptide (%) vs. GLP-1” value (from here on “In vitro activity … (%) vs. GLP-1”) with human GLP-1 receptor came to 8.5%.

H[Aib]QGTFTSDYSKYLDEKRQKEFVNWLLAQKC (bridge 16-20) [Triple agonist of SEQ ID NO: 34]: the “In vitro activity … (%) vs. Glucagon” value in the test with human GCG receptor is 0.92%. In addition, the “In vitro activity … (%) vs. GIP” value with human GIP receptor was 0.6%. Moreover, in the test with human GLP-1 receptor, the “In vitro activity … (%) vs. GLP-1” value was found to be 19.1%.

Take H[Aib]QGTFTSDKSKYLDECAAQDFVQWLLDGGPSSGAPPPS [Triple agonist of SEQ ID NO: 41]: the “In vitro activity … (%) vs. Glucagon” value with human GCG receptor is less than 0.1%. Further, in the test with human GIP receptor, the “In vitro activity … (%) vs. GIP” value is less than 0.1%. Also, the “In vitro activity … (%) vs. GLP-1” value in the test with human GLP-1 receptor stood at 34.3%.

In the case of Y[Aib]QGTFTSDYSKYLDEKRAKEFVQWLLDHHPSSGQPPPSC (bridge 16-20) [Triple agonist of SEQ ID NO: 42], in the test with human GCG receptor, the “In vitro activity … (%) vs. Glucagon” value was found to be 206%. In the test with human GIP receptor, the “In vitro activity … (%) vs. GIP” value was 7.8%. Besides, the “In vitro activity … (%) vs. GLP-1” value with human GLP-1 receptor is 33.9%.

For [Acetyl(2-(4-imidazolyl))][Aib]QGTFTSDKSSYLDERAAQDFVQWLLDGGPSSGAPPPSS [Triple agonist of SEQ ID NO: 38], the “In vitro activity … (%) vs. GLP-1” value with human GLP-1 receptor was determined as 2.3%.

H[Aib]QGTFTSDYSKYLDEKRQKEFVQWLLDTC (bridge 16-20) [Triple agonist of SEQ ID NO: 52]: the “In vitro activity … (%) vs. Glucagon” value with human GCG receptor is 7.5%. The “In vitro activity … (%) vs. GIP” value with human GIP receptor came out at 0.3%. Besides, the “In vitro activity … (%) vs. GLP-1” value in the test with human GLP-1 receptor came to 44.1%.

As for H[Aib]QGTFTSDYSKYLDGQHAQCFVAWLLAGGGPSSGAPPPS [Triple agonist of SEQ ID NO: 39], the “In vitro activity … (%) vs. Glucagon” value in the test with human GCG receptor was 0.53%. The “In vitro activity … (%) vs. GIP” value with human GIP receptor was less than 0.1%. The “In vitro activity … (%) vs. GLP-1” value in the test with human GLP-1 receptor worked out at 13.9%.

In the case of H[Aib]QGTFTSDYSKYLDEKRAKEFVQWLLDHHPSSGQPPPSC (bridge 16-20) [Triple agonist of SEQ ID NO: 50], in the test with human GCG receptor, the “In vitro activity … (%) vs. Glucagon” value turned out to be 50.5%. Besides, the “In vitro activity … (%) vs. GIP” value with human GIP receptor stood at 2.7%. The “In vitro activity … (%) vs. GLP-1” value in the test with human GLP-1 receptor was determined as 67.4%.

Consider H[Aib]QGTFTSDVSSYLLGQQQKEFIAWLVKGGGPSSGAPPPSC [Triple agonist of SEQ ID NO: 5], for which the “In vitro activity … (%) vs. Glucagon” value with human GCG receptor was less than 0.1%. The “In vitro activity … (%) vs. GIP” value in the test with human GIP receptor was less than 0.1%. Moreover, the “In vitro activity … (%) vs. GLP-1” value with human GLP-1 receptor turned out to be 42.1%.

H[Aib]QGTFTSDYSKYLDEKRQKEFVQWLLNTC (bridge 16-20) [Triple agonist of SEQ ID NO: 51]: the “In vitro activity … (%) vs. Glucagon” value with human GCG receptor came out at 2%. Further, the “In vitro activity … (%) vs. GIP” value with human GIP receptor stood at 0.1%. The “In vitro activity … (%) vs. GLP-1” value in the test with human GLP-1 receptor is 14.4%.

In the case of {Acetyl(2-(4-imidazolyl))}-[Aib]QGTFTSDYSICMDEIHQKDFVNWLLNTK (bridge 15-19) [Triple agonist of SEQ ID NO: 49], the “In vitro activity … (%) vs. Glucagon” value with human GCG receptor was less than 0.1%. In addition, in the test with human GIP receptor, the “In vitro activity … (%) vs. GIP” value is 3.3%. In addition, in the test with human GLP-1 receptor, the “In vitro activity … (%) vs. GLP-1” value is 29.8%.

Consider Y[Aib]QGTFTSDYSKYLDEKRAKEFVQWLLDHHCSSGQPPPS (bridge 16-20) [Triple agonist of SEQ ID NO: 43], for which the “In vitro activity … (%) vs. Glucagon” value with human GCG receptor came to 88.4%. Further, the “In vitro activity … (%) vs. GIP” value in the test with human GIP receptor was found to be 3.7%. The “In vitro activity … (%) vs. GLP-1” value with human GLP-1 receptor is 12.6%.

With HGQGTFTSDCSKQLDGQAAQEFVAWLLAGGPSSGAPPPS [Triple agonist of SEQ ID NO: 44], the “In vitro activity … (%) vs. Glucagon” value with human GCG receptor was less than 0.1%. For the same molecule, the “In vitro activity … (%) vs. GIP” value with human GIP receptor was less than 0.1%. The “In vitro activity … (%) vs. GLP-1” value in the test with human GLP-1 receptor came to 1.3%.

Take HGQGTFTSDCSKYMDGQAAQDFVAWLLAGGPSSGAPPPS [Triple agonist of SEQ ID NO: 45]: in the test with human GCG receptor, the “In vitro activity … (%) vs. Glucagon” value was less than 0.1%. Further, in the test with human GIP receptor, the “In vitro activity … (%) vs. GIP” value was less than 0.1%. Besides, in the test with human GLP-1 receptor, the “In vitro activity … (%) vs. GLP-1” value was 6.6%.

On to HGQGTFTSDCSKYLDGQRAQEFVAWLLAGGPSSGAPPPS [Triple agonist of SEQ ID NO: 47], for which the “In vitro activity … (%) vs. Glucagon” value with human GCG receptor is less than 0.1%. In addition, the “In vitro activity … (%) vs. GIP” value with human GIP receptor is less than 0.1%. The “In vitro activity … (%) vs. GLP-1” value with human GLP-1 receptor came to 2.4%.

Regarding HGQGTFTSDCSKYLDGQRAQDFVNWLLAGGPSSGAPPPS [Triple agonist of SEQ ID NO: 48], in the test with human GCG receptor, the “In vitro activity … (%) vs. Glucagon” value was less than 0.1%. In addition, in the test with human GIP receptor, the “In vitro activity … (%) vs. GIP” value was less than 0.1%. In the test with human GLP-1 receptor, the “In vitro activity … (%) vs. GLP-1” value amounted to 1.5%.

Turning to HGQGTFTSDCSKYLDEQHAQEFVAWLLAGGPSSGAPPPS [Triple agonist of SEQ ID NO: 46], in the test with human GCG receptor, the “In vitro activity … (%) vs. Glucagon” value was less than 0.1%. Moreover, in the test with human GIP receptor, the “In vitro activity … (%) vs. GIP” value was less than 0.1%. In addition, the “In vitro activity … (%) vs. GLP-1” value in the test with human GLP-1 receptor amounted to 1.4%.

As for H[Aib]QGTFTSDYSKYLDECRQKEFVQWLLNGGPSSGAPPPSG (bridge 16-20) [Triple agonist of SEQ ID NO: 37], in the test with human GCG receptor, the “In vitro activity … (%) vs. Glucagon” value amounted to 6.21%. Besides, in the test with human GIP receptor, the “In vitro activity … (%) vs. GIP” value amounted to 2.2%. Further, the “In vitro activity … (%) vs. GLP-1” value with human GLP-1 receptor was determined as 236%.

Take H[Aib]QGTFTSDYSIAMDEIHQKDFVNWLLNTKC (bridge 16-20) [Triple agonist of SEQ ID NO: 35]: the “In vitro activity … (%) vs. Glucagon” value with human GCG receptor was less than 0.1%. Also, in the test with human GIP receptor, the “In vitro activity … (%) vs. GIP” value amounted to 1.3%. The “In vitro activity … (%) vs. GLP-1” value in the test with human GLP-1 receptor came to 7.5%.

For H[Aib]QGTFTSDYSKYLCEKRQKEFVQWLLNGGPSSGAPPPSG (bridge 16-20) [Triple agonist of SEQ ID NO: 36], the “In vitro activity … (%) vs. Glucagon” value with human GCG receptor turned out to be 0.39%. Also, the “In vitro activity … (%) vs. GIP” value with human GIP receptor is 0.2%. Besides, the “In vitro activity … (%) vs. GLP-1” value with human GLP-1 receptor turned out to be 37.4%.

Take H[Aib]QGTFTSDKSKYLDERACQDFVQWLLDGGPSSGAPPPS [Triple agonist of SEQ ID NO: 40]: the “In vitro activity … (%) vs. Glucagon” value in the test with human GCG receptor is less than 0.1%. The “In vitro activity … (%) vs. GIP” value with human GIP receptor was less than 0.1%. In addition, in the test with human GLP-1 receptor, the “In vitro activity … (%) vs. GLP-1” value was 75.2%.
